Molecular target: T1, mTOR FRB domain, residues 2015-2114 (human, UniProt P42345 2015-2114)
T1 construct: mTOR, human, FRB domain, residues 2015-2114; The methods describe the purification of the GST-FRB fusion and mention no TEV cleavage; also called isolated FRB domain; source: E. coli C41(DE3)RIPL, purified (Glutathione-Sepharose, HiTrapQ, Superdex 75)
Test: NMR titration; up to 220 µM unlabelled linker-PDZ added to 40 µM 15N-labelled FRB; 1H-15N BEST-TROSY, chemical shift perturbation; 278K, pH 8, 50 mM HEPES, 200 mM NaCl
Conditions: both partners purified

T1 sequence (P42345 2015-2114): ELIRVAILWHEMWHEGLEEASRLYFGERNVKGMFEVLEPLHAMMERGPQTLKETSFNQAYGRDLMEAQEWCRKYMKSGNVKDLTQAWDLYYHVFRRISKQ

Kd: ~500 µM
B1: DEPTOR long-linker-PDZ, residues 228-409 (domain or fragment)
chain: MELLNEKSPSSQETHDSPFCLRKQSHDNRKSTSFMSVSPSKEIKIVSAVRRSSMSSCGSSGYFSSSPTLSSSPPVLCNPKSVLKRPVTSEELLTPGAPYARKTFTIVGDAVGWGFVVRGSKPCHIQAVDPSGPAAAAGMKVCQFVVSVNGLNVLHVDYRTVSNLILTGPRTIVMEVMEELEC
modifications: GST tag left out (TEV-cleavable). pOPL111 states no variant, so the reference sequence is used. The full-length WT clone is the S204/N389 natural variant, so residue 389 of this construct may be N …

— PMC8439657, “Bipartite binding and partial inhibition links DEPTOR and mTOR in a mutually antagonistic embrace” (eLife, 2021)
